Results reported in paper PMC11420332 (Biologics : Targets & Therapy, 2024).

Key:
Test in all cases: ELISA
IL-17B = IL-17B (Homo sapiens, UniProt Q9UHF5)
IL-17D = IL-17D (Homo sapiens, UniProt Q8TAD2)
IL-17C = IL-17C (Homo sapiens, UniProt Q9P0M4)

Measured: binding result

IL-17D, sequence (Q8TAD2 16-202): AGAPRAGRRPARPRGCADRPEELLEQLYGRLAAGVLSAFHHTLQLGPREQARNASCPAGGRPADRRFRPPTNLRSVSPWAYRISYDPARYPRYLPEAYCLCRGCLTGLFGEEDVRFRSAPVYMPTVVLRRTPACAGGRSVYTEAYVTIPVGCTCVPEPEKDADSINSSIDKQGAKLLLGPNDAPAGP
IL-17B, sequence (Q9UHF5 21-180): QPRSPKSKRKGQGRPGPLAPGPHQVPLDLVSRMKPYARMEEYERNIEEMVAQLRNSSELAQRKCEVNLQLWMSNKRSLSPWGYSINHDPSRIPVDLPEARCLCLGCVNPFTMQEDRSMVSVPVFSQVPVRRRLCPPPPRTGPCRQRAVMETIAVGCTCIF
IL-17C, sequence (Q9P0M4 19-197): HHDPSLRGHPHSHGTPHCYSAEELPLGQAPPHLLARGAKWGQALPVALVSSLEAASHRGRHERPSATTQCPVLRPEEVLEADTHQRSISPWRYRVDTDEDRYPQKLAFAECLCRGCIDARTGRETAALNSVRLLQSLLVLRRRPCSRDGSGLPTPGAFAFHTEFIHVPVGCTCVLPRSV

B1: Ixekizumab (antibody, V domains shown)
VH: QVQLVQSGAEVKKPGSSVKVSCKASGYSFTDYHIHWVRQAPGQGLEWMGVINPMYGTTDYNQRFKGRVTITADESTSTAYMELSSLRSEDTAVYYCARYDYFTGTGVYWGQGTLVTVSS
VL: DIVMTQTPLSLSVTPGQPASISCRSSRSLVHSRGNTYLHWYLQKPGQSPQLLIYKVSNRFIGVPDRFSGSGSGTDFTLKISRVEAEDVGVYYCSQSTHLPFTFGQGTKLEIK
no binding (tested: 100 ng/well): all assays above
